Assay results taken from the supplement of paper PMC12764529.
± gives the half width of the 95% confidence interval.

Assays:
[1] = folding stability dG unfold from trypsin proteolysis; higher = more stable
How it was run: (§1)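 Mini-proteins designed to be under 80 residues and free of cysteine were carried in a PA-tagged cDNA display construct and digested with trypsin and with chymotrypsin. Each protease was applied at 11 threefold-diluted concentrations, alongside a no-protease condition, before sequencing. K50 came from Bayesian fitting of the sequencing counts, and unfolding free energy was obtained by comparing it with a sequence-predicted unfolded-state K50 and a shared folded-state K50, for each protease separately or for both together. Designs were retained only if their AlphaFold2 dimer inter-PAE exceeded 15.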

[2] = folding stability dG unfold from chymotrypsin proteolysis; higher = more stable
How it was run: as §1

[3] = folding stability dG unfold (combined trypsin and chymotrypsin); higher = more stable
How it was run: as §1

Row | Sequence | folding stability dG unfold [1] [kcal/mol] | folding stability dG unfold [2] [kcal/mol] | folding stability dG unfold [3] [kcal/mol]
1 | SAGKKVVIIEIEEVTNEDGEKEYKIRVLVKDEETGEVTEREITVKEGESIEDLIKKALEEGADEVIIVPSAG [r5_37_TrROS_Hall] | 3.98 ± 0.13 | 4.15 ± 0.14 | 4.12 ± 0.25
2 | SAGGSAGGSALPTSPTYAVVKVPDKYYIVKTKVGDIIFIPDENGIPVPVKVEPFYPIAPEALSAGGSAGGSA [r18_244_TrMRF] | -0.297 ± 0.16 | -0.515 ± 0.4 | -0.258 ± 0.18
3 | SAGGSAGGSKITVHRNPPGYYVIRIHGPGPITIMIPPKDADELANKLKDLGFDMKVEVYPLDDSAGGSAGGS [r20_124_TrROS] | 1.23 ± 0.028 | 1.05 ± 0.1 | 1.1 ± 0.11
4 | SAGGSKEKFLTIEHPDYVIKAYVDYPKEGKLRVRIEIYDKNGKLLKTIEVEAYSPEEVLEFLEKAASAGGSA [r2_82_TrMRF] | 2.48 ± 0.1 | 3.28 ± 0.13 | 3.05 ± 0.14
5 | SAGGSAGGSASLSPEKKVTIKTTVPQPTPPAVTTTLTGQFPSSLTLEELAEKDPNATVSITGSAGGSAGGSA [r18_279_JUSTAS] | 0.221 ± 0.059 | 1.36 ± 0.014 | 1.04 ± 0.055
6 | SAGGSAGGSAGGEPIYIRINNYYIVINLDDGNIRVYPPMKGKKKKVPANDIKPIDPGDISAGGSAGGSAGGS [r10_709_TrROS] | 1.18 ± 0.025 | 0.813 ± 0.071 | 1.07 ± 0.076
7 | SAGGSAGGSAGMTVPTSVEVSPDGTVRVRQLRWVRHGDGWRPFTFTVTLPISDDALKALKSAGGSAGGSAGG [r17_415_TrMRF] | 1.02 ± 0.038 | 1.14 ± 0.059 | 1.12 ± 0.038
8 | SAGGMTITIEKEGDTLKVTITIRDAATNETYTVEATLTRKEDGSLTLEIRFEDGSTKTINLKDIKLVSAGGS [r16_154_TrROS_Hall] | 3 ± 0.21 | 4.11 ± 0.41 | 3.76 ± 0.47
9 | SAGLKEIAKKLGLSEEKIKIKEIKKKKKVVYDKKTKKKYEKEEIVIKIEIVDPKTKKKYEIEIPLEEIKSAG [r5_517_TrROS_Hall] | 2.28 ± 0.18 | 2.63 ± 0.18 | 2.55 ± 0.22
10 | SAGGMTLDELRALLAAGKVTIEPVAPDRWLVTVRGPDGEEFTFEFESLEELLDALRAIPGLEVEVRPVSAGG [r13_600_TrROS_Hall] | 3.29 ± 0.1 | 3.905 ± 0.036 | 3.71 ± 0.044
11 | SAMTEEEKKKKKEEEEKKKRELKIIVVAKTKDGKWKKIAEFTVKNKDMSIEELVKKLKDLGVEEVKIFPSAG [r14_318_TrROS_Hall] | 1.8 ± 0.082 | 3.09 ± 0.093 | 2.67 ± 0.26
12 | SAGMKPGETITIVLPDGTKIEIKILENGEVEIVKIEKKEDGTYKITIRVKVNGKEIEKEITLPPGAKILSAG [r5_394_TrROS_Hall] | 2.52 ± 0.11 | 2.04 ± 0.12 | 2.16 ± 0.27
13 | SAGGMKIYYISKGKKYYVKVILPNNEIIEIETESLEEAIKKAKEELIKKYPNIPPENFKIDYIIPLPESAGG [r13_887_TrMRF] | 3.81 ± 0.2 | 4.34 ± 0.078 | 4.18 ± 0.2
14 | SAGGSAGGSAGGIEDMAEKNPDWKIVEPIEIEIPYYNPDGKWYEVEYTIFVIVPPGDEISAGGSAGGSAGGS [r10_0_TrROS] | 1.46 ± 0.16 | 2.12 ± 0.075 | 1.79 ± 0.23
15 | SMIIKPGMSLEEVLNKIKELLKKGEKYKITVINKETGKVYEFEIDVKTKKIKVKEVTLENGEVIIKIEKVSA [r9_1059_TrROS_Hall] | 1.93 ± 0.046 | 3.54 ± 0.07 | 3.05 ± 0.12
16 | SAGTAKELAELLPGATVEVDEETGTVTVTVELDGYTVRIEIRVDPETGEIVEIRITVTNPDGEEREFELSAG [r5_367_TrROS_Hall] | 3.01 ± 0.077 | 2.92 ± 0.096 | 2.94 ± 0.062
17 | SAGGSAGGSAGMVIERPDDKVLVILGYDPEKGKVYVAVYDPKTGEVRFKEFDNLEDEIKDSAGGSAGGSAGG [r17_300_TrMRF] | 2.16 ± 0.11 | 1.76 ± 0.08 | 1.91 ± 0.17
18 | SAGGSAPFPIKISTIRYPDGYIRMEIWIPPDAPIKIKFPNGFEMEVEPVPNGYYRITMYFRIPKEDSAGGSA [r15_523_TrROS] | 3.77 ± 0.094 | 4.79 ± 0.11 | 4.53 ± 0.15
19 | SAGGSAGGSAGGDKDDKPPVRTVTVMHMFFDENGWLVKFDITFTANGQIEIDWGPVPLPSAGGSAGGSAGGS [r10_682_TrROS] | 2.96 ± 0.3 | 3.8 ± 0.42 | 3.52 ± 0.5
20 | SAGGSAGGETITVKVKIKNEDGEEIEVEAEVTKNKDGSYTITIKNKETGETKVVPNATIEEVEPSAGGSAGG [r6_254_TrROS_Hall] | 1.59 ± 0.12 | 2.19 ± 0.18 | 1.93 ± 0.18
21 | SAGGEEVTIKLSDELRDLVPDAEIRVERLEDGTLRIEIRVRLPAPEPPEPVERREERRVEVRVEVRLESAGG [r13_129_TrROS_Hall] | 1.98 ± 0.16 | 2.22 ± 0.22 | 2.14 ± 0.13
